Results on one molecule are retold here after patent US20040203128A1 (GENSET S A, published 2004).

The target of this assay is GST protein (negative control, from pGEX2TK) (UniProt P08515 1-218 = GST). The assay can be described thus: solid phase overlay assay, 32P-labeled GST-PPP2R2C probe on blotted protein.
Chain of GST protein (negative control, from pGEX2TK) (P08515 whole entry): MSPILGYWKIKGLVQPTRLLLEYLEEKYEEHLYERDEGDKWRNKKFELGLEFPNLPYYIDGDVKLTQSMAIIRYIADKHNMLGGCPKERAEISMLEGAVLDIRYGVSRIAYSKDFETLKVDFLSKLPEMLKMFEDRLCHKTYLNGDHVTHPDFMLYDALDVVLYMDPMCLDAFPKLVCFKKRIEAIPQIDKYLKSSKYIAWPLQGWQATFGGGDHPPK

Procedure: After 4.5 hr of incubation, the membrane was washed with Hyb75 buffer, 1 mM DTT, 1% (w/v) non-fat dry milk three times for 15 min at room temperature. The blots were analyzed by autoradiography.

B1: GST-PPP2R2C radiolabeled recombinant protein (other)
chain: GEDTDTRKINHSFLRDHSYVTEADIISTVEFNHTGELLATGDKGGRVVIFQREPESKNAPHSQGDYDVYSTFQSHEPEFDYLKSLEIEEKINKIKWLPQQNAAHSLLSTNDKTIKLWKITERDKRPEGYNLKDEEGKLKDLSTVTSLQVPVLKPMDLMVEVSPRRIFANGHTYHINSISVNSDCETYMSADDLRINLWHLAITDRSFNIVDIKPANMEDLTEVITASEFHPHHCNLFVYSSSKGSLRLCDMPAAALCDKHSKLFEEPEDPSNRSFFSEIISSVSDVKFSHSDRYMLTRDYLTVKVWDLNMEARPIETYQVHDYLRSKLCSLYENDCIFDKFECAWNGSDSVIMTGAYNNFFRMFDRNTKRDVTLEASRESSKPRAVLKPRRVCVGGKRRRDDISVDSLDFTKKILHTAWHPAENIIAIAATNNLYIFQDKVNSDMH
modifications: 32P-phosphorylated in vitro with PKA and [32P]-γATP (site not stated)
notes: Insert is nucleotides 55-1540 of AF086924 (the bait construct starts at 52), so the first codon may be missing; also called PP2A/Bγ; protein encoded by pGEX-2TK-PPP2R2C; not shown: glutathione S-transferase encoded by the pGEX-2TK vector (Amersham Pharmacia Biotech)
Take B1: the binding result is “no binding (tested: 100 ng, 10 ng and 0.1 ng of GST loaded)”.
